Experimental data as given in article PMC2288612, “The Mre11 protein interacts with both Rad50 and the HerA bipolar helicase and is recruited to DNA following gamma irradiation in the archaeon Sulfolobus acidocaldarius” (BMC Molecular Biology, 2008).

T1: Rad50 recombinant protein (Sulfolobus acidocaldarius) (S. acidocaldarius, UniProt O33600 1-886)
T1 construct: Rad50, Sulfolobus acidocaldarius, purified recombinant protein; source: recombinant, purified (Ni-NTA, gel filtration through Sephadex 200)
T1 sequence (looked up): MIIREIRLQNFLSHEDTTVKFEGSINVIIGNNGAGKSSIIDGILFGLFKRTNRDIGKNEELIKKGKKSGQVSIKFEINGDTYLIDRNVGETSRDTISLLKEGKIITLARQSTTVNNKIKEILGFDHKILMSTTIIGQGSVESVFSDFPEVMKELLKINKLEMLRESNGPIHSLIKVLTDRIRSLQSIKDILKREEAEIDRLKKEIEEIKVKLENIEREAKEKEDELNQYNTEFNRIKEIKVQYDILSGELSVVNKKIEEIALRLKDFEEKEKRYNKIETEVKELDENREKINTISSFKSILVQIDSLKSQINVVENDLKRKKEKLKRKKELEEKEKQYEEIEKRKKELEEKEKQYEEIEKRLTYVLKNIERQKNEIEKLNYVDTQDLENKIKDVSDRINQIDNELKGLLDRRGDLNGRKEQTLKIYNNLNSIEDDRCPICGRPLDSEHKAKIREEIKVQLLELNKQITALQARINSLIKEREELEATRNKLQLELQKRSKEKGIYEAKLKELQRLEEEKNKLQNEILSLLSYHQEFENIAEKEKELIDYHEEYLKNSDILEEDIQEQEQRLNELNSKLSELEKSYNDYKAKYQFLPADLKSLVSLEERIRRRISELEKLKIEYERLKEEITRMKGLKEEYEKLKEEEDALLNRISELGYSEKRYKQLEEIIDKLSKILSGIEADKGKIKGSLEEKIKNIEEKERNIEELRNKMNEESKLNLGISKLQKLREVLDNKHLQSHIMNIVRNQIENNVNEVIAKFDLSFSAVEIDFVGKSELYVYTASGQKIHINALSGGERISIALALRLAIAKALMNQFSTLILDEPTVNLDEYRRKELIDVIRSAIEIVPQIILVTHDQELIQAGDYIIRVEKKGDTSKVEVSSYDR


Molecular target: T1, Rad50 recombinant protein (Sulfolobus …)
Experiment: co-IP; anti-Rad50 purified IgGs and protein A-sepharose on a mixture of purified recombinant proteins (60 nM Rad50, Mre11 and NurA, 300 nM HerA) in IP buffer (20 mM Hepes pH 7.5, 100 mM NaCl, 15 mM MgCl2, 5 mM beta-mercaptoethanol); 4°C; immunoblot
Conditions: both partners purified

| binding result | Binder |
| --- | --- |
| binds | HerA recombinant protein (Sulfolobus acidocaldarius) (natural protein, S. acidocaldarius, UniProt F2Z5Z6 1-495, looked up, HerA bipolar DNA helicase, Sulfolobus acidocaldarius, purified recombinant protein; also called HerA bipolar helicase) MTIGYIIGSATINEATAILEQKIRAGYYVILEYDGDKILGLITNVYTGSPLLDDNLNDVKFVQRIKQLEANKIPFFIKARIKLLCKLDGKFTQPDLPPVAGTPVRLASDEELSTVFSAGDVRIGKLIGSNVEVKIRLNPLSRHLAILAATGSGKSNTVAILSQRLVEIGGSILIFDYHGEYYDSTLPNLNIIEPKLNPLYLSVNEFATLLEIRENANIQYRIIRRTFNQLKEEINNEIKEGKTSLAELNSNFFERLKVKIEEEGRNEKRKESKDEVLNKVEDFAERYSDIIDITFGDVINKIKLGKINVVNLSSLDEDAIDAIVAHYLRRILTSRKENKIKKDSGLKFPILTVVEEAHVLLSKDTNTLTKKWAGRIAREGRKFGVGLIIVSQRPKGLDENILSQMTNKIILKIVEPSDKKYVLETSDNLSEDLADGLSSLDTGEAIIIGNVVKLPTIIKIDKFEGKLSGSDPNLTEEWKRAKEEEIVHSDVSDWG |
| binds | Mre11 recombinant protein (Sulfolobus acidocaldarius) (natural protein, S. acidocaldarius, UniProt Q8NKQ0 1-382, looked up, Mre11, Sulfolobus acidocaldarius, purified recombinant protein; source: recombinant, purified (Ni-NTA, gel filtration through Sephadex 200)) MQLLHISDTHLGKRQYNLESREKDVYDTFTQLIDIAINEHVKAVIHTGDLFDVNNPPNRAKLHAIKELKRLKDHNIPFICIAGDHDSPKRKEEIYPQRILEEFNLIKILQKIDNRVKLENVEVYGISHISNVSVNDLKEQLSKVKPETRKSILMLHQGIRTYLPYQGAWQIELSDLPKGFSLYAVGHLHSRRKDYLDGGALIEIAGSPDIMREEEIEDYQKSKKGATLIDMSGDLPSINYINVNIRDQLVLDINVDKIEQSIESVIQKLKENVKNDKKPILHIELEGTVPIRKDVLMTKLQALRDYVEHYRIYKNNIVSIKEENLKTKLKTTYSSLNDIIADYLKGIGYTDEETKIIIDIINEEDEKKVEELLKKFAGVEDK |
